Starred links: 1 amine or outer side, 2 acyl side, 3 side chain; linkers in the order of their positions; H or OH if unused. Non-standard residues stand in square brackets, D forms with d. Groups on a side chain read outwards from the residue. No end group written: not given here. *: point of attachment. C16N3 = 16-azido-hexadecanoic acid, [N-]=[N+]=NCCCCCCCCCCCCCCCC(=O)*; C5N3 = 5-azido pentinoic acid, [N-]=[N+]=NCCCCC(=O)*; Lys(N3) = [N-]=[N+]=NCCCC[C@H](N)C(=O)O; γGlu = O=C(O)[C@H](CCC(=O)[*:2])N[*:1]; Met(O2) = CS(=O)(=O)CC[C@H](N)C(=O)O; Palmitoyl = CCCCCCCCCCCCCCCC(=O)*; AEEA = NCCOCCOCC(=O)O; Aib = CC(C)(N)C(=O)O
B1: PEP13 (peptide)
peptide: H[dS]QGTFTSDK([γGlu-γGlu-Palmitoyl])SKYLDSRRAHDFV[Lys(N3)]WLLNT-NH2
modifications: N-terminus assumed
SMILES: CCCCCCCCCCCCCCCC(=O)N[C@@H](CCC(=O)N[C@@H](CCC(=O)NCCCC[C@H](NC(=O)[C@H](CC(=O)O)NC(=O)[C@H](CO)NC(=O)[C@@H](NC(=O)[C@H](Cc1ccccc1)NC(=O)[C@@H](NC(=O)CNC(=O)[C@H](CCC(N)=O)NC(=O)[C@@H](CO)NC(=O)[C@@H](N)Cc1c[nH]cn1)[C@@H](C)O)[C@@H](C)O)C(=O)N[C@@H](CO)C(=O)N[C@@H](CCCCN)C(=O)N[C@@H](Cc1ccc(O)cc1)C(=O)N[C@@H](CC(C)C)C(=O)N[C@@H](CC(=O)O)C(=O)N[C@@H](CO)C(=O)N[C@@H](CCCNC(=N)N)C(=O)N[C@@H](CCCNC(=N)N)C(=O)N[C@@H](C)C(=O)N[C@@H](Cc1c[nH]cn1)C(=O)N[C@@H](CC(=O)O)C(=O)N[C@@H](Cc1ccccc1)C(=O)N[C@H](C(=O)N[C@@H](CCCCN=[N+]=[N-])C(=O)N[C@@H](Cc1c[nH]c2ccccc12)C(=O)N[C@@H](CC(C)C)C(=O)N[C@@H](CC(C)C)C(=O)N[C@@H](CC(N)=O)C(=O)N[C@H](C(N)=O)[C@@H](C)O)C(C)C)C(=O)O)C(=O)O
B2: PEP6 (peptide)
peptide: H[Aib]QGTFTSDK([γGlu-γGlu-Palmitoyl])SKYLD[Aib]RRAQDFVQWLLDT[Lys(N3)][γGlu]-NH2
modifications: N-terminus assumed
SMILES: CCCCCCCCCCCCCCCC(=O)N[C@@H](CCC(=O)N[C@@H](CCC(=O)NCCCC[C@H](NC(=O)[C@H](CC(=O)O)NC(=O)[C@H](CO)NC(=O)[C@@H](NC(=O)[C@H](Cc1ccccc1)NC(=O)[C@@H](NC(=O)CNC(=O)[C@H](CCC(N)=O)NC(=O)C(C)(C)NC(=O)[C@@H](N)Cc1c[nH]cn1)[C@@H](C)O)[C@@H](C)O)C(=O)N[C@@H](CO)C(=O)N[C@@H](CCCCN)C(=O)N[C@@H](Cc1ccc(O)cc1)C(=O)N[C@@H](CC(C)C)C(=O)N[C@@H](CC(=O)O)C(=O)NC(C)(C)C(=O)N[C@@H](CCCNC(=N)N)C(=O)N[C@@H](CCCNC(=N)N)C(=O)N[C@@H](C)C(=O)N[C@@H](CCC(N)=O)C(=O)N[C@@H](CC(=O)O)C(=O)N[C@@H](Cc1ccccc1)C(=O)N[C@H](C(=O)N[C@@H](CCC(N)=O)C(=O)N[C@@H](Cc1c[nH]c2ccccc12)C(=O)N[C@@H](CC(C)C)C(=O)N[C@@H](CC(C)C)C(=O)N[C@@H](CC(=O)O)C(=O)N[C@H](C(=O)N[C@@H](CCCCN=[N+]=[N-])C(=O)N[C@@H](CCC(N)=O)C(=O)O)[C@@H](C)O)C(C)C)C(=O)O)C(=O)O
B3: PEP21 (peptide)
peptide: HXQGTFTSDKSKYLDXRAAQDFVQWLLDTKK
modifications: Aib (U) at 2 and 16; Lys 10 K(γEγEC16); Lys 31 K(PEG2PEG2-C5N3); C-terminal amide
B4: PEP22 (peptide)
peptide: H[Aib]QGTFTSDK([γGlu-γGlu-Palmitoyl])SKYLD[Aib]RAAQDFV[Lys(N3)]WLLDTK[γGlu]-NH2
modifications: N-terminus assumed
SMILES: CCCCCCCCCCCCCCCC(=O)N[C@@H](CCC(=O)N[C@@H](CCC(=O)NCCCC[C@H](NC(=O)[C@H](CC(=O)O)NC(=O)[C@H](CO)NC(=O)[C@@H](NC(=O)[C@H](Cc1ccccc1)NC(=O)[C@@H](NC(=O)CNC(=O)[C@H](CCC(N)=O)NC(=O)C(C)(C)NC(=O)[C@@H](N)Cc1c[nH]cn1)[C@@H](C)O)[C@@H](C)O)C(=O)N[C@@H](CO)C(=O)N[C@@H](CCCCN)C(=O)N[C@@H](Cc1ccc(O)cc1)C(=O)N[C@@H](CC(C)C)C(=O)N[C@@H](CC(=O)O)C(=O)NC(C)(C)C(=O)N[C@@H](CCCNC(=N)N)C(=O)N[C@@H](C)C(=O)N[C@@H](C)C(=O)N[C@@H](CCC(N)=O)C(=O)N[C@@H](CC(=O)O)C(=O)N[C@@H](Cc1ccccc1)C(=O)N[C@H](C(=O)N[C@@H](CCCCN=[N+]=[N-])C(=O)N[C@@H](Cc1c[nH]c2ccccc12)C(=O)N[C@@H](CC(C)C)C(=O)N[C@@H](CC(C)C)C(=O)N[C@@H](CC(=O)O)C(=O)N[C@H](C(=O)N[C@@H](CCCCN)C(=O)N[C@@H](CCC(N)=O)C(=O)O)[C@@H](C)O)C(C)C)C(=O)O)C(=O)O

Target: human glucagon receptor (human, UniProt P47871 26-477)
Assay: cell-based or functional assay

Binder	hGCGR_EC50 (cAMP activity assay) [nM]
B1	0.04
HXQGTFTSDYSKYLDERAAQDFVKWLLDT (D-Ser (s) at 2; Lys 24 K(PEG2PEG2γE-C16N3); C-terminal amide) [PEP25]	0.04
H[Aib]QGTFTSDK([γGlu-γGlu-Palmitoyl])SKYLD[Aib]RAAQDFV[Lys(N3)]WL[Met(O2)]KGRG-NH2 [PEP3]	0.07
H[Aib]QGTFTSDK([γGlu-γGlu-Palmitoyl])SKYLDERAAQDFV[Lys(N3)]WLLDGRG-NH2 [PEP2]	0.11
B2	0.07
H[dS]QGTFTSDK([γGlu-γGlu-Palmitoyl])SKYLDERAAK([AEEA-C5N3])DFVQWLLDT-NH2 [PEP16]	0.05
H[dS]QGTFTSDK([γGlu-γGlu-Palmitoyl])SKYLDERAAQ[Lys(N3)]FVQWLLDT-NH2 [PEP1]	0.01
H[dS]QGTFTSDYSKYLDERAAK([AEEA-AEEA-γGlu-C16N3])DFVQWLLDT-NH2 [PEP26]	0.12
H[Aib]QGTFTSDK([γGlu-γGlu-Palmitoyl])SKYLD[Aib]RAAQDFVQWLLDTKK([AEEA-C5N3])-NH2 [PEP20]	0.1
B3	0.08
HXQGTFTSDKSKYLDERAAQDFVKWLLDT (D-Ser (s) at 2; Lys 10 K(γEγEC16); Lys 24 K(PEG2-C5N3); C-terminal amide) [PEP14]	0.05
H[dS]QGTFTSDK([γGlu-γGlu-Palmitoyl])SKYLDERAAK([AEEA-AEEA-C5N3])DFVQWLLDT-NH2 [PEP17]	0.06

Target: human GLP-1 receptor (human, UniProt P43220 24-463)
Assay: cell-based or functional assay

Binder	hGLP1R EC50 (cAMP activity assay) [pM]
B1	100
HXQGTFTSDYSKYLDERAAQDFVKWLLDT (D-Ser (s) at 2; Lys 24 K(PEG2PEG2γE-C16N3); C-terminal amide) [PEP25]	50
HXQGTFTSDKSKYLDERAAQDFVXWLLDT (D-Ser (s) at 2; Lys 10 K(γEγEC16); Nle(εN3) at 24; C-terminal amide) [PEP74]	50
B4	70
B2	170
H[dS]QGTFTSDK([γGlu-γGlu-Palmitoyl])SKYLDERAAK([AEEA-C5N3])DFVQWLLDT-NH2 [PEP16]	60
H[dS]QGTFTSDYSKYLDERAAK([AEEA-AEEA-γGlu-C16N3])DFVQWLLDT-NH2 [PEP26]	120
H[Aib]QGTFTSDK([γGlu-γGlu-Palmitoyl])SKYLD[Aib]RAAQDFVQWLLDTKK([AEEA-C5N3])-NH2 [PEP20]	50
B3	70
HXQGTFTSDKSKYLDERAAQDFVKWLLDT (D-Ser (s) at 2; Lys 10 K(γEγEC16); Lys 24 K(PEG2-C5N3); C-terminal amide) [PEP14]	70
HXQGTFTSDKSKYLDERAAQDFVXWLLXT (D-Ser (s) at 2; Lys 10 K(γEγEC16); Nle(εN3) at 24; γE at 28; C-terminal amide) [PEP11]	60
H[dS]QGTFTSDK([γGlu-γGlu-Palmitoyl])SKYLDERAAK([AEEA-AEEA-C5N3])DFVQWLLDT-NH2 [PEP17]	50

From US20190175744A1 (Merck Sharp & Dohme, published 2019)
